In data set [1] the test system is T1, Cys-BAl-Lys-Arg-Arg-Glu-Ile-Leu-Ser-Arg-Arg-Pro-Ser-Tyr-Arg-NH2.
T1 sequence: CXKRREILSRRPSYR

The test system of data set [2] is T2, Cys-βAla-Leu-Arg-Arg-Ala-Ser-Leu-Gly-NH2.
T2 sequence: CXLRRASLG

Data set [3] concerns T3, Dpr(Aoa)-Leu-Arg-Arg-Ala-Ser-Leu-Gly-NH2.
T3 sequence: LRRASLG

The subject of data set [4] is T4, Leu-Arg-Arg-Ala-Ser-Leu-Gly-thioamide.
T4 sequence: LRRASLG

The subject of data set [5] is 13-mer peptides of the scan through the myelin basic protein (MBP) from bos taurus.
Data set [6] deals with T5, Arg-Arg-Ile-Ser-Lys-Asp-Asn-Pro-Asp-Tyr-Gln-Gln-Asp-BAl-Cys-NH2.
T5 sequence: RRISKDNPDYQQDXC

In data set [7] the test system is T6, Cys-BAl-Gly-Arg-Thr-Gly-Arg-Arg-Asn-Ser-Ile-NH2.
T6 sequence: CXGRTGRRNSI

Data set [8] relates to T7, Cys-BAl-Ala-Lys-Arg-Arg-Arg-Leu-Ser-Ser-Leu-Arg-Ala-NH2.
T7 sequence: CXAKRRRLSSLRA

Data set [9] concerns T8, Cys-BAl-Lys-Lys-Arg-Phe-Ser-Phe-Lys-Lys-Ser-Phe-Lys-Leu-NH2.
T8 sequence: CXKKRFSFKKSFKL

The test system of data set [10] is T9, Cys-BAl-Pro-Leu-Ser-Arg-Thr-Leu-Ser-Val-Ala-Ala-Lys-Lys-NH2.
T9 sequence: CXPLSRTLSVAAKK

For data set [11], the system named is other peptides not described as substrates for protein kinase C.
For data set [12], the system named is T10, Cys-BAl-Gln-Lys-Arg-Pro-Ser-Gln-Arg-Ser-Lys-Tyr-Leu-NH2.
T10 sequence: CXQKRPSQRSKYL

In data set [13] the test system is T11, Cys-BAl-Pro-Lys-Asp-Pro-Ser-Gln-Arg-Arg-Arg-NH2.
T11 sequence: CXPKDPSQRRR

Turning to Protein kinase A, the “phosphorylation on peptide array (32P, PhosphorImager; higher signal in all three subarrays)” value in data set [1] was “with one exception, all the peptides on the modified glass surface are recognised and phosphorylated by protein kinase A which carries two arginine residues in position -2 and -3 (N-terminal) to the serine”; in data set [2], “with one exception, all the peptides on the modified glass surface are recognised and phosphorylated by protein kinase A which carries two arginine residues in position -2 and -3 (N-terminal) to the serine”; in [7], “with one exception, all the peptides on the modified glass surface are recognised and phosphorylated by protein kinase A which carries two arginine residues in position -2 and -3 (N-terminal) to the serine”; in data set [8] it was “with one exception, all the peptides on the modified glass surface are recognised and phosphorylated by protein kinase A which carries two arginine residues in position -2 and -3 (N-terminal) to the serine”. Further, the “time course of 32P incorporation on modified glass (FIG. 3)” value in [2] is “a clear time dependence can be identified for the kinase-mediated incorporation of radioactivity into the substrate amino acid sequence”. Further, the “phosphorylation of 960 spots on glass (32P, PhosphorImager; FIG. 7)” value in data set [3] was “the linking of the immobilised kinase substrate is tolerated by the protein kinase A”. The “phosphorylation of 11760 spots on glass (32P, PhosphorImager; FIG. 6)” value in data set [4] is on record as “the linking of the immobilised kinase substrate is tolerated by the protein kinase A”. Besides, the “phosphorylation on MBP peptide scan array (32P, PhosphorImager; higher signal in all three subarrays)” value in [5] was “most of the peptides on the modified glass surface are recognised and phosphorylated by protein kinase A which was also found in the experiment carried out in solution”. Also, the “phosphorylation on peptide array (32P, PhosphorImager)” value in data set [6] is reported as “The peptide 83 is probably not phosphorylated because of the excessive N-terminal localisation of the substrate motif”.
Protein kinase C: the “phosphorylation on peptide array (32P, PhosphorImager; higher signal in all three subarrays)” value was “the peptides known as protein kinase C substrates (substrate peptides Nos. 3, 23, 27, 41, 43) ... are recognised and phosphorylated by this kinase on the modified glass surface” in data set [9]; “the peptides known as protein kinase C substrates (substrate peptides Nos. 3, 23, 27, 41, 43) ... are recognised and phosphorylated by this kinase on the modified glass surface” in [10]; “other peptides not described as substrates for protein kinase C are recognised and phosphorylated by this kinase on the modified glass surface” in data set [11]; “the peptides known as protein kinase C substrates (substrate peptides Nos. 3, 23, 27, 41, 43) ... are recognised and phosphorylated by this kinase on the modified glass surface” in data set [8]; “the peptides known as protein kinase C substrates (substrate peptides Nos. 3, 23, 27, 41, 43) ... are recognised and phosphorylated by this kinase on the modified glass surface” in [12]; “the peptides known as protein kinase C substrates (substrate peptides Nos. 3, 23, 27, 41, 43) ... are recognised and phosphorylated by this kinase on the modified glass surface” in data set [13].

These data come from patent US20060234308.
